# Experimental data published in the nanobody polyreactivity screen of Harvey et al. (2022).
# Assay: yeast display, Sf9 membrane polyspecificity reagent, FACS + sequencing; frameworks hold sequencing errors
# Outline: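 Galactose induction of a Saccharomyces cerevisiae BJ5465 synthetic nanobody display library ran 36–48 hours. The cells were then stained for 1 hour at 4 °C with 10% biotinylated, detergent-solubilized Sf9 membrane reagent, pulled down on streptavidin microbeads and FACS-sorted into low and high (top ~1%) gates on expression and reagent-binding fluorescence. Labels for polyreactivity follow the gate of origin.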
row,Sequence,polyreactivity (PSR sort gate)
1,QVQLVESGGGLVQAGGSLRLSCAASGSTFLVYAMGWYRQAPGKERELVAAITQIDGSTYYADSVKGRFTISRDNAKNTVYLQMNSLKPEDTAVYYCAARYFWTYEYDYWGQGTQVTVSS,low polyreactivity
2,QVQLVESGGGLVQAGGSLRLSCAASGSTFLYNAMGWYRQAPGKEREFVAAISGSGGTTYYADSVKGRFTISRDNAKNTVYLQMNSLNPEDTAVYYCAVSQSWYWYYASDYWGQGTQVTVSS,low polyreactivity
3,QVQLVESGGGLVQAGGSLRLSCAASGSTFLYVMGWYRQAPGKERELVAAISESGGSTYYADSVKGRFTISRDNAKNTLYLQMNSLKPEDTAVYYCAADLPTGLQYRYYRVDYWGQGTQVTVSS,low polyreactivity
4,QVQLVESGGGLVQAGGSLRLSCAASGSTFLYYAMGWYRQAPGKERELVAAITSSGGRTYFADSVKGRFTISRDNAQNTVYLQMNSLQPEDTAVYYCARGWPRREQSEYDYWGQGTQVTVSS,high polyreactivity
5,QVQLVESGGGLVQAGGSLRLSCAASGSTFLYYDMGWYRQAPGKERELVATITRGGSTYYADSVKGRFTISRDNAKNTVYLQMNSLKPEDTAVYYCAAYRWGILSAYYYAWYGYWGQGTQVTVSS,low polyreactivity
6,QVQLVESGGGLVQAGGSLRLSCAASGSTFLYYTMGWYRQAPGKERELVAAITSGGDTNYADSVKGRFTISRDNAKNTVYLQINSLKPEDTAVYYCNAEYTWSGTKIYTYKYDYWGQGTQVTVSS,low polyreactivity
7,QVQLVESGGGLVQAGGSLRLSCAASGSTFNAYAMGWYRQAPGKERELVAAISSSGGRTHYADSVKGRFTISRDNAKNTVYLQMNSLKPEDTAVFYCNVGKRFVRNDYWGQGTQVTVSS,high polyreactivity
8,QVQLVESGGGLVQAGGSLRLSCAASGSTFNDNAMGWYRQAPGKERELVAGISYSGGSTYYADSVKGRFTISRDNAKNTVYLQMNSLKPEDTAVYYCNADVTGLSQFGYWGQGTQVTVSS,low polyreactivity
9,QVQLVESGGGLVQAGGSLRLSCAASGSTFNDYVMGWYRQAPGKERELVAAISRSGGSTYYADSVKGRFTISRDNAKNTVYLQMNSLKPEDTAVYYCAAASPGPWRYDYWGQGTQVTVSS,high polyreactivity
10,QVQLVESGGGLVQAGGSLRLSCAASGSTFNFNAMGWYRQAPRKERELVAAISSSGGSTYYADSVKGRFTISRDNAKNTVYLQMNSLKPEDTAVYYCATVRRKSPLYYYWGQGTQVTVSS,high polyreactivity
11,QVQLVESGGGLVQAGGSLRLSCAASGSTFNFYAMGWARQAPGKERELVAAIRQSSGRTYYADSVKGRFTISRDNAKNTVYLQMNSLKPEDTAVYYCNARVPRYNGGSTMEYWGQGTQVTVSS,high polyreactivity
12,QVQLVESGGGLVQAGGSLRLSCAASGSTFNGYVMGWYRQAPGKERELVAAISRSGGSTYYADSVKGRFTISRDNAKNNVYLQMYSLKPEDTAVYSCAKGGYQHYWGQGTQVTVSS,high polyreactivity
13,QVQLVESGGGLVQAGGSLRLSCAASGSTFNGYVMGWYRQAPGKERELVAAISRSGGSTYYADSVKGRFTISRDNAKNTVYLQMYSLKPEDTAVYYCAKGGYQHYWGQGTQVTVSS,high polyreactivity
14,QVQLVESGGGLVQAGGSLRLSCAASGSTFNINVMGWYRQAPGKERELVASISTGDITYYADSVKGRFTISRDNAKNTVYLQMNSLKPEDTAVYYCNAEDDLYWWVWYAVGEEYWGQGTQVTVSS,low polyreactivity
15,QVQLVESGGGLVQAGGSLRLSCAASGSTFNIYAMGCYRQSPGKERELVAAIRSGGSTYYADSVKGRFTISRDNAKNTVYLQMNSLKPEDTAVYYCGAAVKRALDYWGQGTQVTVSS,high polyreactivity
16,QVQLVESGGGLVQAGGSLRLSCAASGSTFNIYVMGWYRQAPGKERELVAAITTSGRTYYADSVKGRFTISRDNAKNTVYLQMNSLKPEDTAVYYCAAVPVRYRYSYGYYYWGQGTQVTVSS,high polyreactivity
17,QVQLVESGGGLVQAGGSLRLSCAASGSTFNKYAMGWYRQAPGKERELVAAISSSGGSTYYADSVKGRFTISRDNAKNTVYLQMNSLKPEDTAVYYCNARRTYSVPARRYYYWGQGTQVTVSS,high polyreactivity
18,QVQLVESGGGLVQAGGSLRLSCAASGSTFNLYAMGWYRQAPGKERELVAAISDGDSSTYYADSVKGRFTISRDNAKNTVYLQMNSLKPEDTAVYYCAADFSVYTEEDDSWGQGTQVTVSS,low polyreactivity
19,QVQLVESGGGLVQAGGSLRLSCAASGSTFNRNAMGWYRQAPGKERELVAAISWRGDSTSYADSVKGRFTISRDNAKNTVYLQMNSLKPEDTAVSYCAADYYYGQGQPDEDNYWGQGTQVTVSS,low polyreactivity
20,QVQLVESGGGLVQAGGSLRLSCAASGSTFNRYAMGWYRPAPGKERELVASISWGGGRTYYADSVKGRFTISRDNAKNTVDFQLNSLKPEDTAVYFCATDRYDRHYEVDYWGQGTQVTVSS,low polyreactivity
21,QVQLVESGGGLVQAGGSLRLSCAASGSTFNSYTMGWYRKAPGKERELVAAITLSGGRTYYADSVKGRFTISRDNAKNTVYLQMNSLKPEDTAVYYCAAYCRASWERDYWGQGTQVTVTS,low polyreactivity

row,Sequence,polyreactivity (PSR sort gate)
1,QVQLVESGGGLVQAGGSLRLSCAASGSTFNTNAMGWYRQAPGKERELVAAITWRTGSTYYADSVKGRFTISRDNAKNTVYLQMNSLKPEDTAVYYCAADYFWYRSGRYHYWGQVTQVTVSS,high polyreactivity
2,QVQLVESGGGLVQAGGSLRLSCAASGSTFNVNAMGWYSQAPGKERELVATISSGGSTNYADSVKGRFTISRDNAKNTVYLQMNSLKPEDTAVYYCAKEYGSIIPYDYWGQGTQVTVSS,low polyreactivity
3,QVQLVESGGGLVQAGGSLRLSCAASGSTFNVYAMGWYRQAPGKERELVAGIRDSDGSTNYADSVKARFTISRDNAKNTVYLQMNSLKQEDPAVYYCAADLYDINWSVWLDYWGQGTQVTVSS,low polyreactivity
4,QVQLVESGGGLVQAGGSLRLSCAASGSTFNVYGMGCYRQAPGKERELVAAINRDGITYADSVKGRFTISRDNAKNTVYLQMNSLKPEDTAVYYCAAGYSPYKGSAGYYWGQGTQVTVSS,low polyreactivity
5,QVQLVESGGGLVQAGGSLRLSCAASGSTFNYNAMGWYRQAPGKERELVAAIRSSDGSTHYADSVKGRFTISRDNAKNTVYLQMNSLKPEDTAVYYCAADYDVWWRDDYWGQGSQVTVSS,low polyreactivity
6,QVQLVESGGGLVQAGGSLRLSCAASGSTFNYNPMGWYRQAPGKERELVAAISSSGGSTYYADSVKGRFTISRDNAKNTVYLQMNSLKPEDTAVYYCATGGSSRVRTEGDYWGQGTQVTVSS,low polyreactivity
7,QVQLVESGGGLVQAGGSLRLSCAASGSTFNYYAMGWYRQAHGTERELFAAITYRGGSTYYADSVKGRFTISRDNAKNTVYLHMNLLKPEDTAVYYCNARQVRYMYAQDEGYDYWGLGTQVTVSS,high polyreactivity
8,QVQLVESGGGLVQAGGSLRLSCAASGSTFPANAMGWYRQAPGKERELVATISWSGGRTYYADSVKGRFTISRDNAKNTVYLQMNSLKPEDTAVYYCAANGHGRVYFGGGNWGQGTQVTVSS,high polyreactivity
9,QVQLVESGGGLVQAGGSLRLSCAASGSTFPAYAMGWYRQAPGKERELVAAINTSGGNTYYADSVKGRFTISRDNAKNTVYLQMNSLKPEDTAVYYCAADYKARYSEKFDYWGQGTQVTVSS,low polyreactivity
10,QVQLVESGGGLVQAGGSLRLSCAASGSTFPFYAMGWYRQAPGKERELVAAITASVGNTYYADSVKGRFTISRDNAKNTVYLQMNSLKPEDTAVYYCNADEWYTYIPDFDYWGQGTQVTVSS,low polyreactivity
11,QVQLVESGGGLVQAGGSLRLSCAASGSTFPGNAMGGSRQAAGKERELVASISGGGDSTYYADSVKGRFTISRDNAKNTVYLQMNSRKPEDTAVYYCAADYRQEPGYTGYYYWGQGTQVTVSS,low polyreactivity
12,QVQLVESGGGLVQAGGSLRLSCAASGSTFPGNAMGGYRQAPGKERELVAAINWSGDSTYYADSVKGRFTISRDNAKNTVYLQMNSLKPEDTAVYYCAAYGDGYYYWGQGTQVTVSS,low polyreactivity
13,QVQLVESGGGLVQAGGSLRLSCAASGSTFPGNAMGWYRQAPGKERELVAAIRDRGTSTYYADSVKGRFTISRDNAKNTVYLQMNSLNPEDTAVYYCAARSFTADLGYYWGQGTQVTVSS,high polyreactivity
14,QVQLVESGGGLVQAGGSLRLSCAASGSTFPGYAMGWYRQAPGKDRELVAAISKRGGSTRYADSVKGRFTISRDKAKNTVYLQMNSLKPEDTAVYYCNAVYTKRYKYYYTSGYWGQGTQVTVSS,high polyreactivity
15,QVQLVESGGGLVQAGGSLRLSCAASGSTFPGYAMGWYRQAPGKERELVAAISWSGGNTYYADSVKGRFTISRDNAKNTVYLQMNSLKPEDTAVYYCNAAGRRYKFDYWGQGTQVSVSS,high polyreactivity
16,QVQLVESGGGLVQAGGSLRLSCAASGSTFPGYAMGWYRQAPGKERELVASITSSGDNTYYADSVKGRFTISRDNAKNSVYLQMNSLKPEDTAVYYCAAPTKYRSRRYYWGQGTQVTVSS,high polyreactivity
17,QVQLVESGGGLVQAGGSLRLSCAASGSTFPHNPMGCYRQAPGKERELVAAISSIGVRTYYADSVKGRFTISRDNAKNTVYLQMNSLKPEDTAVYYCAARQSQGDRYYYWGHGTQVTVSS,high polyreactivity
18,QVQLVESGGGLVQAGGSLRLSCAASGSTFPKNAMGWYRQAPGKERELVAAINTGGSTYYADSVKGRFTISLDNAKYTVYLQMNSLKPEDTAVYYCAARDNYHRDVGHPYDYWGQGTQVTVSS,low polyreactivity
19,QVQLVESGGGLVQAGGSLRLSCAASGSTFPKNVMGWYRQAPGKERELVAAINYSGTSTYYADSVKGRFTISRDNAKNTVYLQMNSLKPEDTAVYYCAARFPLVRYNYWGQGTQVTVSS,high polyreactivity
20,QVQLVESGGGLVQAGGSLRLSCAASGSTFPKYAMGWYRQAPGKERELVASISVTTGSTYYADSVKGRFTISRDNAKNTVYLQMNSLKPEDTAVYYCAVGRTVAHRFIAGDYWGQGTQVTVSS,high polyreactivity
